Tests used:
[1] = biological target: recombinant mouse-TIGIT (mouse) (UniProt P86176); assay: ELISA on recombinant mouse-TIGIT
[2] = biological target: human TIGIT stably expressed on cells (Jurkat; 293T) (human) (UniProt Q495A1); assay: whole cell binding, flow cytometry, n=3
[3] = biological target: human TIGIT stably expressed on cells (Jurkat; 293T) (human) (UniProt Q495A1); assay: cell-based or functional assay
[4] = biological target: recombinant human TIGIT extra cellular domain (ECD) protein (human) (UniProt Q495A1); assay: ELISA on recombinant human TIGIT ECD
[5] = biological target: recombinant cynomolgus TIGIT (cyno-TIGIT ECD) (cynomolgus monkey); assay: ELISA on recombinant cyno-TIGIT
[6] = biological target: human TIGIT stably expressed on cells (Jurkat; 293T) (human) (UniProt Q495A1); assay: flow cytometry (CytoFlex), whole cell binding on h-TIGIT cells; representative of three experiments

human TIGIT stably expressed on cells (Jurkat; 293T) (human), sequence (Q495A1 22-244 limits assumed): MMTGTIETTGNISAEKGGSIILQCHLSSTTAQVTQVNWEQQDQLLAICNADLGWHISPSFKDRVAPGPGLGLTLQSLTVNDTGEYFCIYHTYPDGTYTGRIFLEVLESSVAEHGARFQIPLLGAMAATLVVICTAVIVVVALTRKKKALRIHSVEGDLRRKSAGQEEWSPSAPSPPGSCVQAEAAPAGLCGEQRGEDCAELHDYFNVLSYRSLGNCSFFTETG
recombinant human TIGIT extra cellular domain (ECD) protein (human), sequence (Q495A1 22-138 limits assumed): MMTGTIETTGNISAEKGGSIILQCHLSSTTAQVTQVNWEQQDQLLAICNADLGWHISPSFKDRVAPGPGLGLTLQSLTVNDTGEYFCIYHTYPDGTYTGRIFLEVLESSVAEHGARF
recombinant mouse-TIGIT (mouse), sequence (P86176 29-148 limits assumed): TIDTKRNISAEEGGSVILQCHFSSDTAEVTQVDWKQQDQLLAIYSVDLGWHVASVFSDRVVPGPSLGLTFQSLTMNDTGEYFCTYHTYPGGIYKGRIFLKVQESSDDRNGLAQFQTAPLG
recombinant cynomolgus TIGIT (cyno-TIGIT ECD) (cynomolgus monkey), sequence (chain, as listed by the source): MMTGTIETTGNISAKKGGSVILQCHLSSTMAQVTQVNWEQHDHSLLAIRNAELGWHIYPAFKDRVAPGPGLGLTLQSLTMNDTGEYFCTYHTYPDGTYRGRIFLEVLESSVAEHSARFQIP

Row | Substance | EC50 (read off the curve) [1] | EC50 [2] | EC50, TIGIT blockade NFAT luciferase reporter assay [3] | EC50 (read off the curve) [4] | EC50 (read off the curve) [5] | EC50 (read off the curve) [6]
1 | anti-mouse TIGIT reference antibody (Biolegend #142101) | 0.08 µg/mL |  |  |  |  | 
2 | Reference Ab 2 (reference anti-human-TIGIT antibody with the amino acid sequences of Tiragolumab, U.S. 2017/0088613 A1) |  | 610 pM | 720 pM | 0.1 µg/mL | 0.1 µg/mL | 500 pM

Source: patent publication US20230037911A1
